# In patent publication US20060281125, “ICBP90 polypeptide and its fragments and polynucleotides coding for said polypeptides and applications for diagnosing and treating cancer” (Institut National de la Sante et de la Recherche Medicale, published 2006):
# B1: ICB2X3 (dsDNA)
# DNA 1: AATTCGATTGGTTCTGATTGGTTCTGATTGGTTCTT
# DNA 2: CTAGAAGAACCAATCAGAACCAATCAGAACCAATCG
# Molecular target: T1, ICBP-59 (Homo sapiens, UniProt Q96T88 SEQ:263-793)
# T1 chain: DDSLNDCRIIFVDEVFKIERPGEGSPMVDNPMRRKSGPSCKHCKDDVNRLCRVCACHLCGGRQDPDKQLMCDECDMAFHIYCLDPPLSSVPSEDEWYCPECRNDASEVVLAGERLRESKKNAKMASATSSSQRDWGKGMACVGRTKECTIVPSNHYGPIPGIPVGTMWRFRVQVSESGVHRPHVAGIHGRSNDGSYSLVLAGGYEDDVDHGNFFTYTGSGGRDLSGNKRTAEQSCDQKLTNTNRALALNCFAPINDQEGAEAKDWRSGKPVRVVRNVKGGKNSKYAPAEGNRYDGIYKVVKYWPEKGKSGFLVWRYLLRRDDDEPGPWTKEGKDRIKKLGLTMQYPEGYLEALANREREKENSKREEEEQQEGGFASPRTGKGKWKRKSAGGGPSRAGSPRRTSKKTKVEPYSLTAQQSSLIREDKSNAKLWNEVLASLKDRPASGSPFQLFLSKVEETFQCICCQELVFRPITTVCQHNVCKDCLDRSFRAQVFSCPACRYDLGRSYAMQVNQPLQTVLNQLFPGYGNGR
# Assay: EMSA; 12 mM HEPES-NaOH pH 7.9, 60 mM KCl, 4 mM Tris-HCl, 12% glycerol, poly(dI/dC), room temperature
# Details: tags: GST fusion (pGEX-4T-1), GST cleaved with thrombin; label: 32P; cohesive EcoRI/XbaI ends
# Protocol: The ICBP-59 protein (1 μg) was incubated with 1 ng of oligonucleotide and labelled at its terminal end by phosphorous ³²P in 12% glycerol, 12 mM HEPES-NaOH (pH 7.9), 60 mM KCl, 4 mM Tris-HCl (pH 7.9), 100 ng BSA, 0.6 mM DTT, and 100 ng poly(dI/dC) in 20 μl (Inouye et al., 1994). After a 30-minutes incubation at room temperature, the reaction mix was loaded in 6% polyacrylamide gels. In competition experiments, the quantity indicated of non-labelled oligonucleotides were added to the reaction mix 10 minutes before the addition of proteins. To examine the binding properties of ICBP90 with regard to the ICB2 box, we used the same protocol except that labelled oligonucleotide contained only one copy of the CCAAT sequence as described below: […]
binder,measurement,value
B1,binding result,binds
